The values that follow come from US20240376170A1 (BRIGHT PEAK THERAPEUTICS, published 2024).

Bridges are numbered along the chain shown (N, C = ends). Primed or numbered codes have the meaning given here. [ ]: non-standard residue; d: D form. Ygp(4) = Tyr with amino-capped PEG8 (O-(8x polyethylene glycol-amino)-tyrosine); Yn3(4) = Tyr with azide-capped PEG9 (O-(9x polyethylene glycol-azido)-tyrosine); Ygp = O-(8x polyethylene glycol-amino)-tyrosine (Tyr, amino-capped PEG8); Yn3 = O-(9x polyethylene glycol-azido)-tyrosine (Tyr, azide-capped PEG9); cleavable peptide‑PEG9‑glutaryl = not defined here; Ygp″ = O-(8x polyethylene glycol-amino)-tyrosine; Yn3″ = O-(9x polyethylene glycol-azido)-tyrosine; PEG4′ = 4x polyethylene glycol; PEG9′ = 9x polyethylene glycol; hSer = N[C@@H](CCO)C(=O)O; Nle = CCCC[C@H](N)C(=O)O

T1: IL-2 receptor βγ complex (human, UniProt P14784 27-551; P31785 23-369)
T1 sequence (looked up) 1: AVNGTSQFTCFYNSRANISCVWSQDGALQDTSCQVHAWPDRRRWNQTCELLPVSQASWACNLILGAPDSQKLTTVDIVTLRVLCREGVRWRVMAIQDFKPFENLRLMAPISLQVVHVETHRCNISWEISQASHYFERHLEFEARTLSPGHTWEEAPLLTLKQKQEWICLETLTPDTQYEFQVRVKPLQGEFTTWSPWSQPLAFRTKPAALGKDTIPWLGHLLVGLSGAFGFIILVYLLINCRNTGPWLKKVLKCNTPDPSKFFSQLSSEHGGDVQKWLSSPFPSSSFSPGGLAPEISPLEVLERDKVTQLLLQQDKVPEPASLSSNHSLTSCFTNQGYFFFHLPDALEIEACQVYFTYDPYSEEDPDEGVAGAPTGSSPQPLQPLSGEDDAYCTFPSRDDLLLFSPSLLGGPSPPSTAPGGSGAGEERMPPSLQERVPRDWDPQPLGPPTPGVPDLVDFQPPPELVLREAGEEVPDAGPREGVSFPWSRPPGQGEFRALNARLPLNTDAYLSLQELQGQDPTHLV
T1 sequence (looked up) 2: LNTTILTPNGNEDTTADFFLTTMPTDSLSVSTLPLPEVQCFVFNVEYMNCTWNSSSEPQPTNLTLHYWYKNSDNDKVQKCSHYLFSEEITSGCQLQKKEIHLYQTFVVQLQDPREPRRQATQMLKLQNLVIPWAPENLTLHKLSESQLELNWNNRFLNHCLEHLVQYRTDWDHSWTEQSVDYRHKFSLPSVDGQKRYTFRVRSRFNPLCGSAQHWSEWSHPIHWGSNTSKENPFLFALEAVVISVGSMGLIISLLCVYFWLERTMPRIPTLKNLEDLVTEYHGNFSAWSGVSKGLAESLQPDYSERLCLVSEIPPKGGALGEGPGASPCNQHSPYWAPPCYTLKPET

B1: CMP-138 (ligand)
chain: [PEG4′]SGGPGPAGMKGLPGS[PEG4′]APTSSSTKKTQLQLEHLLLDLQ[Nle]ILNGIENYKNPKLTR[Nle]L[hSer][Yn3]KF[Ygp][Nle]PKKATELKHLQCLEEELKPLEEVL[hSer]LAQSKNFHLRPRDLISNINVIVLELKGSETTF[hSer]CEYADETATIVEFLNRWITFSQSIISTLT
modifications: bridge (positions not given here); not fully specified (bridges); ends not checked
B2: CMP-151 (ligand)
chain: APTSSSTKKTQLQLEHLLLDLQKILNGINNYKNPKLTR[Nle]L[hSer][Yn3″]KF[Ygp″][Nle]PKKATELKHLQCLEEELKPLEEVL[hSer]LAQSKNFHLRPRDLISNINVIVLELKGSETTF[hSer]CEYADETATIVEFLNRWITFSQSIISTLT
modifications: linker N-23 via cleavable peptide‑PEG9‑glutaryl; reading uncertain
B3: CMP-136 (ligand)
chain: [PEG9′]PLGLAG[PEG9′]APTSSSTKKTQLQLEHLLLDLQ[Nle]ILNGIENYKNPKLTR[Nle]L[hSer][Yn3]KF[Ygp][Nle]PKKATELKHLQCLEEELKPLEEVL[hSer]LAQSKNFHLRPRDLISNINVIVLELKGSETTF[hSer]CEYADETATIVEFLNRWITFSQSIISTLT
modifications: bridge N-37; not fully specified (bridges); ends not checked
B4: CMP-163, MMP2 cleaved molecule (ligand)
chain: APTSSSTKKTQLQLEHLLLDLQKILNGINNYKNPKLTR[Nle]L[hSer][Yn3(4)]KF[Ygp(4)][Nle]PKKATELKHLQCLEEELKPLEEVL[hSer]LAQSKNFHLRPRDLISNINVIVLELKGSETTF[hSer]CEYADETATIVEFLNRWITFSQSIISTLT
modifications: not fully specified; ends and bridges not checked
B5: CMP-301, MMP2 cleaved molecule (ligand)
chain: APTSSSTKKTQLQLEHLLLDLQEILNGINNYKNPKLTR[Nle]L[hSer][Yn3(4)]KF[Ygp(4)][Nle]PKKATELKHLQCLEEELKPLEEVL[hSer]LAQSKNFHLRPRDLISNINVIVLELKGSETTF[hSer]CEYADETATIVEFLNRWITFSQSIISTLT
modifications: not fully specified; ends and bridges not checked; also: cleaved by MMP2, product not given here, N-terminus linked to another sequence via PEG9, Glu23 side chain linked to another sequence
B6: CMP-167 (ligand)
chain: APTSSSTKKTQLQLEHLLLDLQKILNGINNYKNPKLTR[Nle]L[hSer][Yn3]KF[Ygp][Nle]PKKATELKHLQCLEEELKPLEEVL[hSer]LAQSKNFHLRPRDLISNINVIVLELKGSETTF[hSer]CEYADETATIVEFLNRWITFSQSIISTLT
modifications: bridge N-23; not fully specified (bridges); ends not checked; also: sequence of the cleavable peptide in the bridge not given here
B7: CMP-164, MMP2 cleaved molecule (ligand)
chain: APTSSSTKKTQLQLEHLLLDLQKILNGINNYKNPKLTR[Nle]L[hSer][Yn3]KF[Ygp][Nle]PKKATELKHLQCLEEELKPLEEVL[hSer]LAQSKNFHLRPRDLISNINVIVLELKGSETTF[hSer]CEYADETATIVEFLNRWITFSQSIISTLT
modifications: ends and bridges not checked; also: MMP2 cleaved, cleavage site and linker fragments on N-terminus and Lys23 side chain not given here
B8: CMP-301 (ligand)
chain: GPLGLAG[PEG9′]APTSSSTKKTQLQLEHLLLDLQEILNGINNYKNPKLTR[Nle]L[hSer][Yn3(4)]KF[Ygp(4)][Nle]PKKATELKHLQCLEEELKPLEEVL[hSer]LAQSKNFHLRPRDLISNINVIVLELKGSETTF[hSer]CEYADETATIVEFLNRWITFSQSIISTLT
modifications: lactam N-31; ends not checked
B9: CMP-164 (ligand)
chain: APTSSSTKKTQLQLEHLLLDLQKILNGINNYKNPKLTR[Nle]L[hSer][Yn3]KF[Ygp][Nle]PKKATELKHLQCLEEELKPLEEVL[hSer]LAQSKNFHLRPRDLISNINVIVLELKGSETTF[hSer]CEYADETATIVEFLNRWITFSQSIISTLT
modifications: bridge N-23; not fully specified (bridges); ends not checked; also: sequence of the cleavable peptide in the bridge not given here
B10: CMP-169, MMP2 cleaved molecule (ligand)
chain: APTSSSTKKTQLQLEHLLLDLQEILNGINNYKNPKLTR[Nle]L[hSer][Yn3(4)]KF[Ygp(4)][Nle]PKKATELKHLQCLEEELKPLEEVL[hSer]LAQSKNFHLRPRDLISNINVIVLELKGSETTF[hSer]CEYADETATIVEFLNRWITFSQSIISTLT
modifications: not fully specified; ends and bridges not checked; also: cleaved by MMP2, product not given here, Lys9 side chain linked to another sequence via PEG4, Glu23 side chain linked to another sequence
B11: CMP-167, MMP2 cleaved molecule (ligand)
chain: APTSSSTKKTQLQLEHLLLDLQKILNGINNYKNPKLTR[Nle]L[hSer][Yn3]KF[Ygp][Nle]PKKATELKHLQCLEEELKPLEEVL[hSer]LAQSKNFHLRPRDLISNINVIVLELKGSETTF[hSer]CEYADETATIVEFLNRWITFSQSIISTLT
modifications: ends and bridges not checked; also: MMP2 cleaved, cleavage site and linker fragments on N-terminus and Lys23 side chain not given here
B12: CMP-166, MMP2 cleaved molecule (ligand)
chain: APTSSSTKKTQLQLEHLLLDLQKILNGINNYKNPKLTR[Nle]L[hSer][Yn3]KF[Ygp][Nle]PKKATELKHLQCLEEELKPLEEVL[hSer]LAQSKNFHLRPRDLISNINVIVLELKGSETTF[hSer]CEYADETATIVEFLNRWITFSQSIISTLT
modifications: ends and bridges not checked; also: MMP2 cleaved, cleavage site and linker fragments on N-terminus and Lys23 side chain not given here
B13: CMP-165 (ligand)
chain: APTSSSTKKTQLQLEHLLLDLQKILNGINNYKNPKLTR[Nle]L[hSer][Yn3]KF[Ygp][Nle]PKKATELKHLQCLEEELKPLEEVL[hSer]LAQSKNFHLRPRDLISNINVIVLELKGSETTF[hSer]CEYADETATIVEFLNRWITFSQSIISTLT
modifications: bridge N-23; not fully specified (bridges); ends not checked; also: sequence of the cleavable peptide in the bridge not given here
B14: CMP-169 (ligand)
chain: APTSSSTKKTQLQLEHLLLDLQEILNGINNYKNPKLTR[Nle]L[hSer][Yn3(4)]KF[Ygp(4)][Nle]PKKATELKHLQCLEEELKPLEEVL[hSer]LAQSKNFHLRPRDLISNINVIVLELKGSETTF[hSer]CEYADETATIVEFLNRWITFSQSIISTLT
modifications: bridge 9-23; not fully specified (bridges); ends not checked; also: linker peptide sequence not given here
B15: CMP-165, MMP2 cleaved molecule (ligand)
chain: APTSSSTKKTQLQLEHLLLDLQKILNGINNYKNPKLTR[Nle]L[hSer][Yn3]KF[Ygp][Nle]PKKATELKHLQCLEEELKPLEEVL[hSer]LAQSKNFHLRPRDLISNINVIVLELKGSETTF[hSer]CEYADETATIVEFLNRWITFSQSIISTLT
modifications: ends and bridges not checked; also: MMP2 cleaved, cleavage site and linker fragments on N-terminus and Lys23 side chain not given here

The first experiment addresses T1, IL-2 receptor βγ complex. The experiment in a line: cell-based or functional assay.
On to B1, for which the “Average EC50, pSTAT5 Assay (T cells)” value is 20.1 nM.

Turning to B2, the “Average EC50, pSTAT5 Assay (T cells)” value was found to be 28.2 nM.

Consider B3, for which the “Average EC50, pSTAT5 Assay (T cells)” value came out at 40.5 nM.

A further experiment addresses T1, IL-2 receptor βγ complex. Description: cell-based or functional assay. The source holds these as a separate data set.
B4: the “Average EC50, pSTAT5 Assay (T cells)” value came to 0.76 nM.

On to B5, for which the “Average EC50, pSTAT5 Assay (T cells)” value turned out to be 0.883 nM.

B6: the “Average EC50, pSTAT5 Assay (T cells)” value worked out at 176 nM.

As for B7, the “Average EC50, pSTAT5 Assay (T cells)” value is 0.61 nM.

Regarding B8, the “Average EC50, pSTAT5 Assay (T cells)” value turned out to be 180 nM.

Turning to B9, the “Average EC50, pSTAT5 Assay (T cells)” value was found to be 31.4 nM.

Regarding B10, the “Average EC50, pSTAT5 Assay (T cells)” value worked out at 5.39 nM.

As for B11, the “Average EC50, pSTAT5 Assay (T cells)” value turned out to be 5.31 nM.

Consider B12, for which the “Average EC50, pSTAT5 Assay (T cells)” value was 4.36 nM.

With B13, the “Average EC50, pSTAT5 Assay (T cells)” value turned out to be 57.4 nM.

B14: the “Average EC50, pSTAT5 Assay (T cells)” value was found to be 53.4 nM.

As for B15, the “Average EC50, pSTAT5 Assay (T cells)” value worked out at 1.42 nM.

The next experiment deals with T1, IL-2 receptor βγ complex. Description: cell-based or functional assay. This is another data set of the same source.
In the case of B1, the “Average EC50, pSTAT5 Assay in NK cells” value was found to be 1.88 nM.

For the molecule B2, the “Average EC50, pSTAT5 Assay in NK cells” value is 2.51 nM.

Take B3: the “Average EC50, pSTAT5 Assay in NK cells” value was 2.17 nM.
